For this assay, the target named is T1, human TNF-alpha (Peprotech, London, UK) (human, UniProt P01375 77-233).
T1 construct: Commercial recombinant protein
Nature of the assay: direct ELISA, plates coated with 0.5 µg/ml human TNF-alpha; ESBA105 standard series 50-0.5 ng/ml; used to quantify ESBA105 in serum and brain tissue. How it is done:
ESBA105 concentrations were determined by triplicate measurements of each sample in a direct ELISA. 96-well plates (NUNC MaxiSorp; Omnilab, Mettmenstetten, Switzerland) were coated with 0.5 μg/ml human TNF-alpha (Peprotech, London, UK) in PBS overnight at 4° C. Between each of the following steps plates were washed three times with TBS-T (0.005% Tween20; Axon Lab, Baden-Dattwyl, Switzerland) using a micro plate washer (ASYS Atlantis, Salzburg, Austria). Unspecific binding sites were saturated by 1.5 hour incubation in PBS/1% BSA/0.2% Tween20. […] Bound ESBA105 was detected with a biotinylated affinity purified polyclonal rabbit anti-ESBA105 antibody (AK3A, ESBATech, Schlieren, Switzerland) that was diluted 1:20′000 in dilution buffer (1.5 h, room temperature). AK3A, in turn, was detected with poly-horseradish peroxidase streptavidin (Stereospecific Detection Technologies, Baesweiler, Germany) at a concentration of 0.2 ng/ml dilution buffer. […] Absorbance was measured at 450 nm in a plate reader (Sunrise; Tecan, Maennedorf, Switzerland) and ESBA105 concentrations in samples were calculated by polynomial regression from a standard curve (GraphPad Prism 4.03; GraphPad Software, Inc., San Diego, Calif.). The minimum quantifiable concentration (LOQ) of ESBA105 was 5 ng/ml in serum and 33 ng/ml in brain tissue, respectively.
(In general: ELISA stands for enzyme-linked immunosorbent assay.)

The results in this text go back to patent US20110135644A1 (ESBATECH AN ALCON BIOMEDICAL RESEARCH UNIT, published 2011).

T1 sequence (P01375 77-233 limits assumed): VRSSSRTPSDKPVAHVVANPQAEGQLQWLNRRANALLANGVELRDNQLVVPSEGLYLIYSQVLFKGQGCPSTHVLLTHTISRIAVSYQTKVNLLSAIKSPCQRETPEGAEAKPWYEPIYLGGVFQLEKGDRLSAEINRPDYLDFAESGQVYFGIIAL

B1: ESBA105 (scFv)
scFv: MADIVMTQSPSSLSASVGDRVTLTCTASQSVSNDVVWYQQRPGKAPKLLIYSAFNRYTGVPSRFSGRGYGTDFTLTISSLQPEDVAVYYCQQDYNSPRTFGQGTKLEVKRGGGGSGGGGSGGGGSSGGGSQVQLVQSGAEVKKPGASVKVSCTASGYTFTHYGMNWVRQAPGKGLEWMGWINTYTGEPTYADKFKDRFTFSLETSASTVYMELTSLTSDDTAVYYCARERGDAMDYWGQGTLVTVSS
notes: also called ESBA105 scFv (α-TNFalpha); E105
For the molecule B1, the binding result is listed as “binds”.
